The experiment addresses CD16 on CD16-transfected BW cells (FcγRIIIA-transfected BW cell line) (UniProt P08637). Kind of experiment: FACS on BW-CD16 cells.
Sequence of UniProt P08637 (P08637 17-254 limits assumed): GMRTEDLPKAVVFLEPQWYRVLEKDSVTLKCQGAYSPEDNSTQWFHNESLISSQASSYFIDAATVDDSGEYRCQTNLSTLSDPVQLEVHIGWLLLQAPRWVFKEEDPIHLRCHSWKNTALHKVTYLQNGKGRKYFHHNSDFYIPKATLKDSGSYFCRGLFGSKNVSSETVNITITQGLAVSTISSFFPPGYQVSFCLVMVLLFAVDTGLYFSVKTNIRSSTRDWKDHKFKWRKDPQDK

“rituximab (intact, undigested) (antibody)”: the binding percentage is 99.8%.

(Values after US20190048076A1.)
